US20200181597A1, “Composition and Application of Arginine-depleting Agents for Cancer, Obesity, Metabolic Disorders, and Related Complications and Comorbidities” (THE HONG KONG POLYTECHNIC UNIVERSITY, priority 2018, published 2020)

Tests used:
[1] = Enzyme kinetics after metal ion substitution; format: biochemical
Procedure: Wild type arginase typically includes a Mn^2+ metal ion (D′Antonio & Christianson, 2011, Biochemistry, 50:8018-27). […] Purified N-ABD094-rhArg (SEQ ID NO: 50) in 20 mM Tris-HCl buffer (pH 7.4) was mixed with 20 mM of different divalent metal ions (Mn^2+, Ni^2+ or Co^2+), and was incubated at 52-55° C. for 15-60 min and then buffer exchanged with PBS buffer (pH 7.4).
Samples were subjected to enzyme activity and enzyme kinetic studies to determine the specific activity and catalytic efficiency (kcat/Km). Samples were applied to inductively coupled plasma atomic emission spectroscopy (ICP-OES, Agilent 700 Series ICP optical emission spectrometer) for quantitative analysis of metal content.

[2] = DIO mice treated with N-ABD094-rhArg-Co^2+; format: in vivo, C57BL/6J male mice; details: 25-100U i.p., within 5 weeks, from 55 g, HFD continued
From the text: Production of N-ABD094-rhArg-Co^2+ [SEQ ID NO: 50 (cobalt substituted)] is described in Example 32. C57BL/6J male mice with pre-existing diet-induced obesity (DIO) received i.p. injection of 25-100U N-ABD094-rhArg-Co^2+[SEQ ID NO: 50 (cobalt substituted)] for 5 weeks, while continuously being fed a HFD.

[3] = target: human serum albumin (HSA) (Homo sapiens, UniProt P02768); experiment: Binding to HSA on non-denaturing PAGE; details: fixed HSA titrated at various molar ratios
Procedure: When ABD is fused to rhArg or BCA, it is important for the fusion protein to retain both the albumin binding capacity and the enzymatic activity. […] The reaction mixtures were analyzed in their native condition on non-denaturing PAGE where the proteins were separated by size and conformation.
In FIG. 7, the mobility of each of HSA and N-ABD-rhArg (SEQ ID NO: 49) alone are shown in Lanes 2 and 3 of the non-denaturing PAGE, respectively (FIG. 7). A fixed amount of HSA (30 pmoles) was titrated against N-ABD-rhArg (SEQ ID NO: 49) at various molar ratios and the results are illustrated in Lanes 5-9. […] In FIG. 8, the mobility of each of HSA and BHA (SEQ ID NO: 75) alone are shown in Lanes 6 and 7 of the non-denaturing PAGE, respectively (FIG. 8). A fixed amount of HSA (60 pmoles) was titrated against BHA (SEQ ID NO: 75) at various molar ratios and the results are illustrated in Lanes 1-5.

plasma arginine = experiment: Plasma arginine after single i.p. dose of N-ABD-rhArg (Biochrom 30); format: in vivo, BALB/c mice
Procedure: FIG. 10 illustrates plasma arginine concentrations, measured using the Biochrom 30 Amino Acid Analyzer, of BALB/c mice after receiving intraperitoneal injection of a single dose of (A) 125U; (B) 250U; and (C) 500U of N-ABD-rhArg (SEQ ID NO: 49). N-ABD-rhArg (SEQ ID NO: 49) was injected at day 0.
Fifteen female BALB/c mice (10 weeks of age) were used in this study. They were kept in groups of five per cage. A single dose of N-ABD-rhArg (SEQ ID NO: 49) (500 U, 250 U, and 125 U, respectively) was administered to the mice via i.p. injection. Blood samples were collected from the saphenous vein using heparinized capillary tubes, and were centrifuged at 800×g to obtain plasma. Sixteen microliters of plasma sample was subjected to measurement of L-arginine concentration using the Biochrom 30 Amino Acid Analyzer. […] In comparing with BHA (SEQ ID NO: 75) (FIG. 9), N-ABD-rhArg (SEQ ID NO: 49) can deplete arginine to a very low level in the mice for exceptionally longer period, which highlights the importance of the requirement for rational design of the fusion protein.

[4] = tested on: 4T1 breast cancer xenograft; experiment: 4T1 breast cancer xenograft in nude mice; format: in vivo, female nude mice
Procedure: (§1) For the aggressive 4T1 breast cancer cell xenograft model studies, 10 female nude mice (11-12 weeks of age) were used. They were kept in groups of five per cage and provided food and water ad libitum. The 4T1 cancer cells were harvested by trypsinization and washed twice with 1×PBS and resuspended in 1×PBS for inoculation. The cancer cells (1×10^6 cells of 4T1) were injected subcutaneously into the left flank of the mice. […] They were injected with either 500U (3.2 mg, 230 μL) N-ABD-rhArg (SEQ ID NO: 49) or 1×PBS once per week. Blood samples were collected from the saphenous vein. Tumor size and the body weight of mice were monitored regularly. The tumor volume was estimated by the following equation: […]
The mice were sacrificed after 16 days of cancer cell inoculation (i.e. 13 days after starting of the experiment) because of necrosis of tumor in the PBS-injected control group. After being sacrificed, tumors were collected from the mice and the weight of the tumor was measured. Lungs were also collected and washed with 1×PBS. The lungs were fixed in Bouin's solution overnight and washed with 1×PBS after fixation. Lung metastatic nodules were counted.

serum arginine = experiment: Serum arginine in 4T1 xenograft nude mice (Biochrom 30); format: in vivo; details: BDL: Below Detection Level
Procedure: as §1
Importantly, 500U of the albumin-binding arginase N-ABD-rhArg (SEQ ID NO: 49) depleted arginine to a level below the detection limit of the Biochrom 30 Amino Acid Analyzer (3 μM) for at least 10 days in BALB/c mice (FIG. 10). Therefore, 500 U of N-ABD-rhArg (SEQ ID NO: 49) was administered via i.p. injection once per week to the 4T1 breast cancer xenograft nude mice for efficacy study.

[5] = tested on: 4T1 breast cancer allograft; experiment: 4T1 breast cancer allograft study; format: in vivo, female nude mice
Procedure: In another 4T1 breast cancer allograft study, female nude mice (5-6 weeks of age) were used. They were kept in groups of five per cage and provided food and water ad libitum. Cells of 4T1 breast cancer ([…]) were injected subcultuaneously into the right flank of the mice. […] There were one control group (n=8) and three experimental groups, including 500U PEGylated His-rhArg (SEQ ID NO: 101) (n=8), 500U N-ABD-rhArg (SEQ ID NO: 49) (n=6) and 250U N-ABD-rhArg (SEQ ID NO: 49) (n=8). Mice in the control group were injected with 1×PBS weekly. For the 500U ABD-rhArg group and the 250U ABD-rhArg group, mice were injected with 500U and 250U ABD-rhArg once a week, respectively; one group was injected with 500U PEG-rhArg once per week. The mice were sacrificed after 24 days of inoculation (i.e. 14 days after starting of experiment) because of necrosis of tumor in PBS control group. After sacrificing, the mice were dissected. Tumors were collected from the mice and measured their weight. Lungs were also collected and washed with 1×PBS. The lungs were fixed in Bouin's solution overnight and washed with 1×PBS after fixation. Lung metastatic nodules were counted.

[6] = literature; cited from earlier work

B1: N-ABD094-rhArg-Co^2+: cobalt-substituted N-ABD094-rhArg enzyme (protein)
chain: MHHHHHHDEAVDANSLAEAKEAANAELDSYGVSDFYKRLIDKAKTVEGVEALKDAILAALPSGSNNNNNNGSGGMSAKSRTIGIIGAPFSKGQPRGGVEEGPTVLRKAGLLEKLKEQECDVKDYGDLPFADIPNDSPFQIVKNPRSVGKASEQLAGKVAEVKKNGRISLVLGGDHSLAIGSISGHARVHPDLGVIWVDAHTDINTPLTTTSGNLHGQPVSFLLKELKGKIPDVPGFSWVTPCISAKDIVYIGLRDVDPGEHYILKTLGIKYFSMTEVDRLGIGKVMEETLSYLLGRKKRPIHLSFDVDGLDPSFTPATGTPVVGGLTYREGLYITEEIYKTGLLSGLDIMEVNPSLGKTPEEVTRTVNTAVAITLACFGLAREGNHKPIDYLNPPK
modifications: cobalt substituted; N-ABD094-rhArg, Synthesized in the Lab
notes: cobalt-substituted N-ABD094-rhArg enzyme
Km [1]: 270 to 350 µM | kcat [1]: 250 to 316 s⁻¹ | bodyweight after treatment [2]: 30 g

B2: N-ABD-rhArg: albumin binding domain (ABD) fused N-terminally to recombinant human arginase I, SEQ ID NO: 49 (protein)
chain: MHHHHHHDEAVDANSLAEAKVLANRELDKYGVSDYYKNLINNAKTVEGVKALIDEILAALPSGSNNNNNNGSGGMSAKSRTIGIIGAPFSKGQPRGGVEEGPTVLRKAGLLEKLKEQECDVKDYGDLPFADIPNDSPFQIVKNPRSVGKASEQLAGKVAEVKKNGRISLVLGGDHSLAIGSISGHARVHPDLGVIWVDAHTDINTPLTTTSGNLHGQPVSFLLKELKGKIPDVPGFSWVTPCISAKDIVYIGLRDVDPGEHYILKTLGIKYFSMTEVDRLGIGKVMEETLSYLLGRKKRPIHLSFDVDGLDPSFTPATGTPVVGGLTYREGLYITEEIYKTGLLSGLDIMEVNPSLGKTPEEVTRTVNTAVAITLACFGLAREGNHKPIDYLNPPK
modifications: N-ABD-rhArg, Synthesized in the Lab
binding to HSA (free HSA reduced in a proportional manner) [3]: specific binding | time serum arginine below detection limit (3 μM) (plasma arginine; single i.p. dose 125U): at least 3 days | time serum arginine below detection limit (3 μM) (plasma arginine; single i.p. dose 250U): at least 7 days | growth of 4T1 breast cancer xenograft ([4]; 500U once per week): inhibit the growth | Number of metastatic nodules found in lungs ([4]; 500 U once per week, n = 4 (PBS control: 3)): 0 | % of metastasis free animals ([4]; 500 U once per week, n = 4 (PBS control: 50%)): 100% | estimated tumor volume vs control group ([4]; 500U once per week, 12 days and 13 days after starting): significant difference | Arginine Concentration (serum), individual mice 1-4 (serum arginine; Day 6, 500 U once per week): 0 (BDL) μM | Arginine Concentration (serum), individual mice 1-4 (serum arginine; Day 13, 500 U once per week): 0 (BDL) μM | growth of 4T1 solid tumor ([5]; 250U once per week): did not inhibit the growth | growth of 4T1 solid tumor ([5]; 500U once per week): inhibited the growth of the aggressive 4T1 solid tumor significantly | metastasis nodules from the lungs vs control group ([5]; 500U once per week): very significantly reduced

B3: human arginase: unmodified human arginase (Georgiou et al.) (protein, UniProt P05089 1-322, looked up)
Arginase-1: MSAKSRTIGIIGAPFSKGQPRGGVEEGPTVLRKAGLLEKLKEQECDVKDYGDLPFADIPNDSPFQIVKNPRSVGKASEQLAGKVAEVKKNGRISLVLGGDHSLAIGSISGHARVHPDLGVIWVDAHTDINTPLTTTSGNLHGQPVSFLLKELKGKIPDVPGFSWVTPCISAKDIVYIGLRDVDPGEHYILKTLGIKYFSMTEVDRLGIGKVMEETLSYLLGRKKRPIHLSFDVDGLDPSFTPATGTPVVGGLTYREGLYITEEIYKTGLLSGLDIMEVNPSLGKTPEEVTRTVNTAVAITLACFGLAREGNHKPIDYLNPPK
half-life / clearance in circulation [6]: a few minutes
